assay: soluble on expression in E. coli; label from the status in PepcDB or PDB records

Sequence	soluble on expression in E. coli
MTVDSSMSSGYCSLDEELEDCFFTAKTTFFRNAQSKHLSKNVCKPVEETQRPPTLQEIKQKIDSYNTREKNCLGMKLSEDGTYTGFIKVHLKLRRPVTVPAGIRPQSIYDAIKEVNLAATTDKRTSFYLPLDAIKQLHISSTTTVSEVIQGLLKKFMVVDNPQKFALFKRIHKDGQVLFQKLSIADRPLYLRLLAGPDTEVLSFVLKENETGEVEWDAFSIPELQNFLTILEKEEQDKIQQVQKKYDKFRQKLEEALRESQGKPG	not soluble
MEHNILQVIALAEKLKYEMRHSWLSNGRQESVAEHTWRMSLMAILVEPYLDQKVSIEKLLKMVIIHDLVEAEAGDIPAFDTMNSHDLQLQKQKNELEAILNIKQTLTGSLGEELYDLWMEFEAKETYEAKVANALDKLEVKIQHNEADIDTWLPIEHKMTFQVAKHTNFDSFLSKLQKIIEQDGEKKLIAAGIDVEACKQ	soluble
MKLTDYVKQVSLEDFGRPFIHHVQWNRRLRSTGGRFFPKDGHLDFNPKVYQELGLDVFRKIVRHELCHYHLYFQGKGYQHKDRDFKELLKAVDGLRFVPSLPNSNSKPIKLYRCQSCQQRYQRKRRIDTQRYRCGLCRGKLLLVNQPEDLEHHHHHH	not soluble
MGSDKIHHHHHHMVRIALDPTPFHHDYDLLDFPDVTARLGYEYMQLTPHVDFGPFFRHPKADDDLVAALKKRAKDAGVTIPALLPVQRISWPEETQRVAAVRNIKRIIQLAVDLEVDTLNTEFSGRPERSEDSEDAFYRSMEELLPILEKEGIKFNIDPHPDDFVENGIEAWRVIRGLNSKQVGFVYVAPHSFHMGDQAEAILPAVGDRLGAVYLSDTFDHHKSHGLRYITNPPGNAVRVHQHLKIGDGDVNFEEIFSLLRSTGYLDREDALLVSNVFAEDEAADEVSRYQLEKIRSLIENA	not soluble
SNGSSVASTSPSVKCKEDQGLNGHEEKENPFAEYMWMENEEDFNRQVEEELQEQDFLDRCFQEMLDEEDQDWFIPARDLPQAVGHLQQQLNGLSVGDSHESEDILSKSNLNPDAKEFVPGVKY	soluble
DRTIPDYTSFNTVDEWLDAIKMSQYKESFASAGFTTFDIVSQMTVEDILRVGVTLAGHQKKILNSIQVMRAQMNQ	soluble
MISENYSRNLVGYGRNAPDPKWPGGARIAVQFVINYEEGGESCILDNDKASESLLSEIVGAQPWPGQRNLNMESIYEYGSRAGFWRLWRMFTGLGVTTTVYGVTAAMARNPEAVAAMKEAGWEIASHGYRWLEYKDFSEEEERKHIVEAVHLHTELTGERPYGMYQGKPSDNTLRLVMEEGGFLYSSDSYADDLPYWVKGVGDEPFLIIPYTLDTNDMRFATPQGFNSGDQFFTYLKDAFDVLYQEGVEGAPKMMSIGLHCRLVGRPGRAAALRRFIEYVLGHEKVWIPQRLEIARHWHEHHKPETP	not soluble
MSLVDIHSHIIPGIDDGSNSLETTLNMMSIAKEAGVTKMVATSHYYRGKFENSISVIEKKANELNYTLKEKGVDIDVIPGQEVFIDNYTLKDYKEGIIGTINNTDYMLVEFDMMSLGENAIDTLYELQIKGIKPIIAHPERYTYIQKDIYKINELMDENIYFQVNAGSIEGLFGKTVQKTALKLVEEGVISFIASDAHSAGKRCPGYEKALHDLTKIDKTLAEKFIKNSNLLLENEKIENKVRKLKKKKTFFSFLKEGHHHHHH	soluble
MMDHAHDSCSPTLRRDLEVTGQLQPEKAVDLAAPHEGKVANITKVTSSNMEHTITQASKAKEVVVLIGHSLLPTFQDLEKDILHFQAGNKGRFSVAIVDPDRSADVVARFRPKQIPVAYVVKDGASIAEFNSLNKEPVAQWLDHFVSRETIPNEKEGDVDKQIDPRLWRAAELVNAGDFRAALALYEQLPQDATVKRAHAAVSVLARMSVADRGEDPIEKSRRDPDDVNKALAAADMYVLMNQPDTALAHLAALLPKPEAARRIVELLNLFDPLDLVALEIRAQVGNAMS	not soluble
MGSDKIHHHHHHMTPTADIWFKDTLAAHFTRDGDQTTFSYTADYAGPPIATSLPINSEPVITRSGAIPPFFAGLLPEGRRLSSLRRNIKASADDELSLLLAVGADPVGAVAIFPHGENPQPAPPTVDFDDELDFSAALTESGIADPVALAGVQDKASARTIAVPVASDAILKLSPPEYPYLVENEAACYQLLTKNKLRIELSKVEVLHDKHGRSGLLVHRFDRTPKGKIPVEDAGQVLGIWPADKYLVSYEDIAQALTKVCASPILAMRNLAFQIAVAWLSGNGDLHAKNISIINKGRGFEISPIYDIPATAVYGDTTMALEIQGSKKDLSQKKFLKFCTSIGLPEKTAMSVANAALLATENAAETILASGNFDTRMNRDLARVLKHRRSAWGA	not soluble
MAHHHHHHMLNCFFGAELKPDGVPISFTIPKGTTLVITQCAVTSVVPPQQSTDAGASSSPAVVAKAYNPVTLCVQGHGLPTRFAVCSLSPAQHITYCPLQLLFSKPVSFVLVPQTGSTAAAAAASSSPSPAPHAGKKTGRNQKHSKTTAGAHGAGAEATAVYPTVHLTGYYERAADEDEEDGSMAMDVMESSDDGENDDLSDDE	soluble
GMTASTAPQTEPHKTSAPESGPVMLLVATIKGAWFLASDPARRTWELRGPVFLGHTIHHIVQDPREPERMLMAARTGHLGPTVFRSDDGGGNWTEATRPPAFNKAPEGETGRVVDHVFWLTPGHASEPGTWYAGTSPQGLFRSTDHGASWEPVAGFNDHPMRRAWTGGEQDGTPDGPKMHSILVDPRDPKHLYIGMSSGGVFESTDAGTDWKPLNRGCAANFLPDPNVEFGHDPHCVVQHPAAPDILYQQNHCGIYRMDRREGVWKRIGDAMPREVGDIGFPIVVHQRDPRTVWVFPMDGSDVWPRVSPGGKPAVYVTRDAGESWQRQDRGLPTDQAWLTVKRQAMTADAHAPVGVYFGTTGGEIWASADEGEHWQCIASHLPHIYAVQSARPV	soluble
MYEKTKWKIQKMMKKGVFSGASFCFIEGEKEESNCWGLAQVKPTKEQLTSAMLFDVASLTKVVGTTTVILQLVEEGKIILDQSLQTYYPSFQDSNITIRHLLTHTADLQGYIPNRDQLNAQELKDAYNHSFHAGKAIGKKVVYTDAGTILLGFMLEEMFQQSMIEILSERVLLPLGMNESTFLPKNPLNCVPTELHEQRGLIRGATHDPKAFVLREHAGNAGLFSNVYDLTKFVRMYLNRGSYHNHQFLKKETIDLLLVNQVPAADKPRSLGWDFKYDVATQRPLLFHTGYTGTFLLIDVQQQSALIFLSNRVHPEDHRNTYIEERDQLLATYLKEKSSVSDEMTSF	not soluble
MIAMAQQDVKPTRSELINLKKKIKLSESGHKLLKMKRDGLILEFFKILNEARNVRTELDAAFAKSTEKINLASAVNGMVAVRSTAFTAKESPEIQLSGHNIMGVVVPKISSTGVRKSLYERGYGIIGTNSYIDETADAYEDLVEKIITAAELETTMKRLLDEIEKTKRRVNALEFKVIPELIDTMKYIRFMLEEMERENTFRLKRVKARMRDLEHHHHHH	not soluble
MDGLFEFCQLSTGGSVAGAVKLNRQQTDMAVNWAGGLHHAKKYEASGFCYVNDIVLAILELLKYHQRVLYIDIDIHHGDGVEEAFYTTDRVMTVSFHKYGEYFPGTGDLRDIGAGKGKYYAVNFPMCDGIDDESYGQIFKPIISKVMEMYQPSAVVLQCGADSLSGDRLGCFNLTVKGHAKCVEVVKTFNLPLLMLGGGGYTIRNVARCWTYETAVALDCEIPNELPYNDYFEYFGPDFKLHISPSNMTNQNTPEYMEKIKQRLFENLRMLPHAPGVQMQAIPEDAVHEDSGDEDGEDPDKRISIRASDKRIACDEEFSDSEDEGEGGRRNVADHKKGAKKARIEEDKKETEDKKTDVKEEDKSKDNLEHHHHHH	soluble
IGKLKLSARGTFTFTRNKILEYDELPQKYGYQAVTGTRVSENTLYIADRLYTEDDFIVSTNANGLKTYKLRSELPRPTLGGLIGPGDIKYVDVNGDGVIDSYDQVRGVGNPSTPEIIYGFGLNAEYKGFYASIFFQGAGNTSVLLGGATSEGWYPFSWGVDQSNYRTFALDRWTENNPSQDVIIPRLHKNNANNANNRVASTWWLRNGSFLRLKNIEFGYQLPKKFMDKIGFEAARIYIMGYNLAVWDDIKYFDPEAGNANAGLNYPLPRTFTLGLDFTF	not soluble
MAEDFSVVVLASDLGIDARPFLTRSDDVDEQENWHDCPQYLGDEDFSDLDLLQFFTLQGLDRSGNRIFRIVGKYFPARVVSAERLKKYISQKISNQCPEGPLCLVYMHSTVQKDDNSPGITILRWIYEDLPSDIKDRLQLVYFIHPGLRSRLVIATLGRLLLSGGLYWKIKYVSRLQYLWEDIKKGEVEIPDFVKNHDNVLEHRPLTDYGIEPDPFQLSEVQSSSFSLNRYENRWVS	soluble
MQRHPTPNARNSLWRWTDAKHPLRVALNYVVIVLARISPSLHAKNWLLARIGVTVGDGVAWGLESTPDVFWPELVTVGDDAIIGYDATLLCHEFLHDEYRTGAVVVEDRAMIGAGAVVLPGVTIGADAQVAANSLVTADVPPGETVAGVPLEHHHHHH	not soluble
MKCPFCAHPDTRVADSRLMEERNAVRRRRHCPNCGKRFGTLETAELKMPAVIGPDKKRSPFNAQRLRNDLTAAARKSALTPEQIDETVRLTEHRLYTSGQRDIPSAALADMVLKELLRQDTEAAVRFAALHKRFDNPADFASWLAQAVKTGGKA	not soluble
MAHHHHHHMFYTGINEPRPTAMNFSFDGLHFVSAHTDDAVRFIDVGNMTNTDVIICDAFGVHNVRYTHSSSVVCVAPRFHLDGHLHLLNTETSQFFGEMAYLNDAESEMLPVANTPVYSTLAQCPATDVIGAVVVAKGRLALFHPLISGCIAATPERSIVGSRACVQFSRDGHRIAIGDDHRIVLLDRRSFFGAPLAVLENKHVFTTSTSLTRCKGLEFSADANRLLLTSSSGEVVVYDWLRGETVANYFHGDARRHFVGSADAIGAQHVFPYQSASPILQLTSSMTGGRHLLVYAGCPSNSAASTRQGRLLYELQSKDSDVPVAIAVNPRLQLAATAARSITWWAFHNSVVEAYATLTEAGMTAAD	not soluble
MGSDKIHHHHHHMDIRSLKLYLHLCDSLHFAKTAEQMHMSPSTLSRTLQRLEDEVGGKLFERDNRSVALTHAGKEFKLFAEHTLSQWLSLKGKVDPQQAQLHGQLSLYCSVTAAYSHLPKLLDRFRSIHPNVDIKLATGDAANAVNELNRNRADIAIIALPDNLASSLFFTAIDKVPLSLIVPTITCPVQQAISQANIAWQDLPYIVPEHGPGRQRADNWFKAMGFKPNIYAQVAGQEAIASMVALGCGVAISPEVVINNSPVRDRIQMLASPITIPAFELGFCCKKKRLEEAVLKAFLASWAIE	not soluble
MLKKTLAALALGSALFTAGQAMAADYKIDKEGQHAFIEFRIKHLGYSWLYGRFNDFDGSFTFDEKNPSADKVKVTINTNSVDTNHAERDKHLRSGDFLNVSKNPTATFESTEVKANGDSADITGNLTLNGVTKPVTIKAKLIGQGDDPWGGYRAGFEGSATLKLKDFGIKMDLGPASQEVELLLSVEGIRQ	not soluble
MPDPLTVSGSFSPEDVKHIGLKSIISGQIIKKYSQNQNLRSIKNVKLIIPSKAVSVDRNERTLFIPCLKLLLNYRFSNNFNKVSQIEIDNVYAYVAVVFPDEEPESFGYYIGVDRNTMGHIAVVADPDSGKVWKLGKMRYHIHQKYQNIMNRLSNSGKNKQLKAVKKREKNIVKDLNHKISRKIVDLALYNGSGIKLENLKGIRKLNSKSNGAGKGKPDQNKDKKLTCSNEYSLNNWSFLQLQQFIEYKARLRGVEVVYIDPYATSKKCSRCGHTGNRQSKRFECPCCGHVDHADVNAAFNIALTPKDTGQFSAERDAGKGRTDTPQKVLARNAFSKRAAREKASPQFAWEVCQFLTLEHHHHHH	not soluble
GPGSSAHAPEGKRATKTELGSTSLYVRVGQLTNLRRHPDADRLYVEDMVLGDETRTIVSGLVESYAIEELEGTQCLVVCNMKPKSLMGVTSQGMVLCAKRDTEVKLIRPPAGAKPGDRILFGASYDAAIAAAAPPEPISSNKMSEVLSHLHTNADSVLCWKDEPARHPSGAAVAIADMANCPVS	soluble
